Data reported in patent publication US20210079343, “ENDOTHELIAL CELL FACTORS AND METHODS THEREOF” (THE CHILDREN'S MEDICAL CENTER CORPORATION, published 2021).

Columns and labels:
NR2F2 (COUP-TFII) [1] = biological target: T1, NR2F2 (COUP-TFII) (Mus musculus, UniProt P43135 P43135:1-414); test: EMSA; 4 C, 20 mM Tris pH 8.0, 10 mM KCl, 20% glycerol; super-shifted by anti-NR2F2; outcompeted by unlabeled wild-type probe; conditions: tags: GST (pGEX2TK, E. coli BL21)
T1 sequence: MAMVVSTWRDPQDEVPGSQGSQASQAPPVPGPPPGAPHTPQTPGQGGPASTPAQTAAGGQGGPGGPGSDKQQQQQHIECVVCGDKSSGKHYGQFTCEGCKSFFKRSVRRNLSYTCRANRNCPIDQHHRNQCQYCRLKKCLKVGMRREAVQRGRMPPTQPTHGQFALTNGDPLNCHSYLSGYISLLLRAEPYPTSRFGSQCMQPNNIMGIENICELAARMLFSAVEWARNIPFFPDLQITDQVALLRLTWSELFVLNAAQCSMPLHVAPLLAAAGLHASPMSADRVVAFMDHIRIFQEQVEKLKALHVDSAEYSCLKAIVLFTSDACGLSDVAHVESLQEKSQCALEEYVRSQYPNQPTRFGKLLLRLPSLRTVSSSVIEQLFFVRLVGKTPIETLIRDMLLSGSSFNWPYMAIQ
Description: (§1) In each case, disruption of the Ets, SoxF or NHR motifs led to a significant reduction or complete loss of GFP expression in CHT ECs (see e.g., FIG. 3F). In control constructs where mutations were targeted to intervening sequences between the Ets, SoxF and NHR motifs, GFP expression was unperturbed (see e.g., FIG. 3F). Studies of arterial-venous specification in zebrafish have shown that the NHR Nr2f2, also known as COUP-TFII, promotes venous endothelial cell fate (see e.g., Aranguren et al. Transcription factor COUP-TFII is indispensable for venous and lymphatic development in zebrafish and Xenopus laevis. Biochemical and biophysical research communications 410, 121-126, 2011). To test whether Nr2f2 could directly bind the enhancer sequences, an in vitro gel electrophoretic mobility shift assay was performed. Incubation of murine NR2F2-GST protein with labeled probe from either the 125 bp mrc1a or 158 bp sele zebrafish enhancers led to DNA:protein complexes that were super-shifted upon addition of an NR2F2 antibody and could be outcompeted by an unlabeled competitor probe (see e.g., FIG. 10A-FIG. 10E).
(§2) The Nr2f2 fragment was cloned into the pGEX2TK™ vector to generate GST-tagged Nr2f2 and fidelity was verified by sequencing. The pGEX2TK-Nr2f2 protein plasmid was transformed into E. coli BL21 competent cells. Proteins were expressed and purified, and purified proteins were quantified against BSA. EMSAs were performed. Probes were generated by annealing 100 pmol of sense and antisense oligonucleotides, and 1-2 pmol of probe was used in each reaction. Gel shift reactions were conducted at 4° C. in 20% glycerol, 20 mM Tris (pH 8.0), 10 mM KCl, 1 mM DTT, 12.5 ng poly dI/C, 6.25 pmol of random, single-stranded oligonucleotides, BSA and the probe in the amount specified above. Samples involving the Nr2f2 protein were loaded on a 6% gel to resolve protein-DNA complexes. In reactions with cold competitors, 20x unlabeled probes were included in the reactions. Anti-NR2F2 antibody (R&D Biosystems™; cat # PP-H7147-00) was at the same amount of the Nr2f2 protein to obtain super-shifts.

NR2F2 (COUP-TFII) [2] = biological target: T1, NR2F2 (COUP-TFII); test: competition; 20x unlabeled mutant unable to outcompete wild-type probe in EMSA; conditions: tags: GST (pGEX2TK, E. coli BL21)
Description: as §1, §2

Binder | binding result (NR2F2 (COUP-TFII) [1]) | binding result (NR2F2 (COUP-TFII) [2])
mrc1a site 1 wild-type (dsDNA) DNA 1: TTTATGAAGCTTGTACCTTTCATTTCCTTTTTG DNA 2: CAAAAAGGAAATGAAAGGTACAAGCTTCATAAA | binds | –
mrc1a site 2 wild-type (dsDNA) DNA 1: TTCATTTCCTTTTTGCTGAGCTTTATTTTC DNA 2: GAAAATAAAGCTCAGCAAAAAGGAAATGAA | binds | –
sele wild-type (dsDNA) DNA 1: GTAATGCCCCCTGTGACCCATATTGTCTCGCTCTTTCCTTTATA DNA 2: TATAAAGGAAAGAGCGAGACAATATGGGTCACAGGGGGCATTAC | binds | –
mrc1a site 1 mutation (dsDNA) DNA 1: TTTAATTAGCAGATTTAATTTCATTTCCTTTTTG DNA 2: CAAAAAGGAAATGAAATTAAATCTGCTAATTAAA | – | no binding
mrc1a site 2 mutation (dsDNA) DNA 1: TTCATTTCCTTTTTGCATTAATTTATTTTC DNA 2: GAAAATAAATTAATGCAAAAAGGAAATGAA | – | no binding
sele mutation (dsDNA) DNA 1: GTAATGCCCCCTGATTAACATATTGTCTCGCTCTTTCCTTTATA DNA 2: TATAAAGGAAAGAGCGAGACAATATGTTAATCAGGGGGCATTAC | – | no binding
